From the DeepSol protein solubility set come the findings set out here.

The nature of this series: soluble on expression in E. coli; label from the status in PepcDB or PDB records.
Turning to “MEGPLTIPVLDKGFVRLVDQMGDDRAIVQAARVSYGEGTKTVREDAALIDYLMRHRHTSPFEMVVFKFHVKAPIFVARQWFRHRTASVNEISGRYSILKEEFYEPEAFRKQAKRNKQASEGALLDEEALALLRKVQQEAYGAYRALLEKGVAREMARMVLPLNLYTEFYWKQDLHNLFHFLKLRLAPEAQWEIRQYARAIAEIVKERVPLAWAAFEEHLLEGAFLSRTELRALRGLLTPEVYEKALSSLGLGGSRLKEALEKVFGPGEAL”, the “soluble on expression in E. coli” value is “soluble”.
The same measure for “FSNAPISAEEQMIRAFVKSVEYMSPRKIGALVAIQRVRTLQEYISTGIPLDAKISAELLINIFIPNTPLHDGAVIIKEERIAVTSAYLPLTKNTGISKEFGTRHRAAIGLSEVSDALTFVVSEETGGISITYNGRFKHNL”: “not soluble”; for “MGSDKIHHHHHHMVGIILASHGEFAEGILQSGAMIFGEQENVKAVTLMPSEGPDDVKAKMQEAIASFDNQDEVLFLVDLWGGTPFNQANSLLEDHKDKWAIVAGMNLPMVIEAYASRFSMESAQEIATHILETAKDGVKVKPEELQPAEAPKAAATEDAQPKGSLPPGTVVGDGKIKFVLARIDSRLLHGQVATAWTKATQPNRIIVVSDAVAKDDLRKKLIEQAAPPGVKANVIPISKMIEVAKDPRFGNTKALLLFENPEDVLKVVEGGVEIPEVNVGSMAHSVGKVVVSKVLSMGQEDVDTFDELKAKGIKFDVRKVPNDSKANMDEILKKAKNELANA”: “not soluble”; for “MANPAAAAGPSGGARSFLQAVSTVTEEAPSPLRVVQMEGLAVLKIIKHCEEFAPALVTGQLLGLDVGSVLEVTNCFPFPMREDDEEADADGANYQLEMMRCLREVNVDNNTVGWYQSCLLGSFQTVELIETFMNYQENIRRCVCIVYDPSRSNQGVLALKALKLTDSFMDLYRNNGLTGEKLREKKLSWVDIFEEIPIKVSNSALVSAFMTELEPESPVSQCDFDRLKLSTAPFMERNLEFLIGCMDDLSSEQNKFQYYYRNVSRQQSQQQAWLQKRRQENMARKAAGEEPLPEEDPSNPIFKPIPEPSRLEGYLVTNQISSYCNHINGVAGQNFNRLYLMKALQED”: “soluble”.
As for “LNNRKQMAQQKFAFYEKSLPNKKRSFFEMKYYNDVTTPKIYRLTDQEMKLFDKLEA”, the entry is “not soluble”; as for “MAEGERQPPPDSSEEAPPATQNFIIPKKEIHTVPDMGKWKRSQAYADYIGFILTLNEGVKGKKLTFEYRVSEAIEKLVALLNTLDRWIDETPPVDQPSRFGNKAYRTWYAKLDEEAENLVATVVPTHLAAAVPEVAVYLKESVGNSTRIDYGTGHEAAFAAFLCCLCKIGVLRVDDQIAIVFKVFNRYLEVMRKLQKTYRMEPAGSQGVWGLDDFQFLPFIWGSSQLIDHPYLEPRHFVDEKAVNENHKDYMFLECILFITEMKTGPFAEHSNQLWNISAVPSWSKVNQGLIRMYKAECLEKFPVIQHFKFGSLLPIHPVTSG”, “soluble”.
The same measure for “MGSDKIHHHHHHVKLAAVDIGSNAIRFQVSKILEYNGMIMFKKMEYVRFPLRLGEDVFRLGMISAEKEMKFIKLIQTFKNLFELYEVDDYMISATSAMRESKNGRDIVLKVKGLVGVDIDIIDGDKEAELINTVLHNELDDNSYIHIDVGGGSTELNLFVNRKKIAARSFKIGSVRRLQGLDAPEEWESMKQWVKDNIDKLPKPVTAIGTGGNIGKIFELGTTEKSKKDKRMISLKKIEEVQHNISQYSYEDRINVLMLNSDRADVIIPASEIYTSVMEFAKAKNMLVPEVGLKDGLMLMLYERNKHLHITDLDSIRNVNKYQK”: “not soluble”; for “MGSDKIHHHHHHMSTRMVTLHGRIVLRASIELLTGLHIGGAAGGLEIGGLDKPVIRNPITNQPYIPGSSLKGKLRSLMEKVYGAPQTFRINEGVFIHVPTNPEEYQRYYQIAGVFGTLPNHKQLTIDVPTRLIVRDVPLTRESEQELRRLRTDLPYTEIKWEAAIDRVTSAAAPRQIERVPAGAVFGPAEVVYSLYVGNGEQLSDVIRLFGSVYEAFTYLEDDYLGGMGSRGNGQVRLRDITVLARRLESGRYGELTTIREAKELRELDRNGLLEELQRFFNPA”: “not soluble”; for “MPVKRSLKLDGLLEENSFDPSKITRKKSVITYSPTTGTCQMSLFASPTSSEEQKHRNGLSNEKRKKLNHPSLTESKESTTKDNDEFMMLLSKVEKLSEEIMEIMQNLSSIQALEGSRELENLIGISCASHFLKREMQKTKELMTKVNKQKLFEKSTGLPHKGQPQMSQPLLEHHHHHH”: “soluble”.
Regarding “MAAVKDSCGKGEMATGNGRRLHLGIPEAVFVEDVDSFMKQPGNETADTVLKKLDEQYQKYKFMELNLAQKKRRLKGQIPEIKQTLEILKYMQKKKESTNSMETRFLLADNLYCKASVPPTDKVCLWLGANVMLEYDIDEAQALLEKNLSTATKNLDSLEEDLDFLRDQFTTTEVNMARVYNWDVKRRNKDDSTKNKA”, the “soluble on expression in E. coli” value is on record as “not soluble”.
As for “MVDSRAFKLKEGREREVDMTSETEKRIIALEETIAHQAKTIEELSDQLAEQWKVVEQTRAKLDRLTERFLSLEEQSLDAPAITRPPHY”, the entry is “not soluble”.
As for “SNAMHNHNNRLVITPGEPAGVGPDLAITLAQQDWPVELVVCADPALLLARASQLNLPLQLREYQADQPAIAQQAGSLTILPVKTAVNVVPGKLDVGNSHYVVETLAKACDGAISGEFAALVTGPVQKSIINDAGIPFIGHTEFFADRSHCQRVVMMLATEELRVALATTHLPLLAVPGAITQASLHEVITILDNDLKTKFGITQPQIYVCGLNPHAGEGGHMGHEEIDTIIPALNTLRQQGINLIGPLPADTLFQPKYLQHADAVLAMYHDQGLPVLKYQGFGRAVNITLGLPFIRTSVDHGTALELAATGTADVGSFITALNLAIKMINNSNE”, the entry is “soluble”; as for “MSLGHAKEVKIGVILGFTGPIESLTPSMADGAELAMKEVTDSGLLLDGATVTSVRADSTCVDAAAATAAAERLVTSDKVDGIMGADCSGVTGAILSNVAVPNGVVMISPSATSPALSTADDNGLFFRTAPSDARQGVVMTEVLMEEGIKEVALTYTNNDYGKGLADSFQAAFEAAGGTVTISAAHEDGKADYSAEVGALAAAGGDRLVVAGYVDQGGSGIVRSAIDSGAFDTFHFPDGMIGAKLEENFGDEIEGSSGQHPGTDSPGVAKFSEMVGGAFDSTSPFTPEAYDAAALIMLAMQAANSKDSGDYKDHVMHVANAPGEKIYPGELAKALQIIKDGGEVDYVGATAVELIGPGESAGNYRQITIEGGKITTAKFREGHHHHHH”, “soluble”.
As for “MSYPSMSSFSTNVPDSENSSRSSVDGYNLKDTTSEKIKQFRENNKRKTSNSSSEEEPETEEGDPSRKLSSKSAEDKFVGRGIDAPRGRIANIRRESSCSVDSEAAHERLTKASQQVSTGFDDIALDSERSPGTSAEFRRRAPSFNTVIGEPISVVTNAFIPHSCSPSPTRQQADLIKQCYSPSTQQMVRPNISYSPSPRESPAQSPTRHAHKLKFQRAESPICRQPIKRKLTVTTLAETDIKRLFVPRSNTSPLVTDKTFPYPQNVGQLFESASTSSEFSSFSVPHSPGPLRAMTPLSSVSVGDQEENSPSVKDAEEKTTDNDEEMQDVEMSDNGTEVDDDLIRAATEAPLPDDDDQNDFAY”, the entry is “not soluble”; as for “PKPPIDLVVTETTATSVTLTWDSGNSEPVTYYGIQYRAAGTEGPFQEVDGVATTRYSIGGLSPFSEYAFRVLAVNSIGRGPPSEAVRARTGEQ”, “soluble”.
On to “MRFLHTADWQLGMTRHFLNGEAQPRYSASRREAVASLGEIAKRTGAEFVVVSGDVFEHNQLAPRDVSQSLEAMRAIGVPVYLLPGNHDPLDASSVYTSALFVAERPDNVVVLDRAGVHEVRPGVQIVAAPWRSKAPTSDLIGDVLADLPADGVTRVLVGHGGVDILDPDKNKPSLIRMAAVEDALARGAVHYVALGDKHSRTEVGGSGRVWYSGSPEVTNYDDIESDPGHVLVVDIDENDARRAVRVESEKVGRWRFVTLRRSVDTDRDIADLDLNLDLLDDKERTVVRLALTGSLTVTDKAKLDECLDRYARLFAALTTWERHTDIAVIPADGEFDDLGIGGFAAAAVDELVATARSEAAEAEDARAALGLLLRLVDRDKGAALEHHHHHH”, for which the “soluble on expression in E. coli” value is listed as “soluble”.
As to “MTNDLADIKLYDQNPDEAAIERLHHRLALVMKNQDASLVATSDPKELERVEKWVQDVLGADEQSAKRGVSKVADMMSGDRRKSRMTFYYLVAKQLNALHKI”, the “soluble on expression in E. coli” value is “not soluble”.
As for “SGIMNIILQDNVQEIEGVVVTGYQQIKNRVFTGAAASVKLDEIKLNGVSDVSRMLEGRIAGLSIQNVTGSFGAAPRINIRGGASIMGNVQPLWVIDGAVYEDLVSLTLDQLASGDAVTLISSAVAGLNASDIEDIQVLKDASATSIYGARALNGVIVITTRSGKRNA”, the entry is “not soluble”; as for “GAMHTFYGTRLLNPKPVDFALEGPQGPVRLSQFQDKVVLLFFGFTRCPDVCPTTLLALKRAYEKLPPKAQERVQVIFVSVDPERDPPEVADRYAKAFHPSFLGLSGSPEAVREAAQTFGVFYQKSQYRGPGEYLVDHTATTFVVKEGRLVLLYSPDKAEATDRVVADLQALL”, “soluble”; as for “MSSEEDEIAELSKDTPPEKKRKISESGASSSSFIPESTSEESLSLKSKKSGSRKRILTASSSTNSIAMKSSASWIQEKDTPINKSDEEKSIAESLLIANFSNEQLDRYTAFKRSRFNRRIIKNVITRTTGQIPSDPLALAVAGLTKMFIGDLVEEAVELRGALNEQDRPVQPYHITRAFDKLLAEGKLWPPYGAKY”, “not soluble”.
The same measure for “TTKKRVFHFGKGKSEGNKTMKELLGGKGANLAEMASIGLSVPPGFTVSTEACQQYQDAGCALPAGLWAEIVDGLQWVEEYMGATLGDPQRPLLLSVRSGAAVSMPGMMDTVLNLGLNDEVAAGLAAKSGERFAYDSFRRFLDMFGNVVMDIPRSLFEEKLEHMKESKGLKNDTDLTASDLKELVGQYKEVYLSAKGEPFPSDPKKQLELAVLAVFNSWESPRAKKYRSINQITGLRGTAVNVQCMVFGNMGNTSGTGVLFTRNPNTGEKKLYGEFLVNAQGEDVVAGIRTPEDLDAMKNLMPQAYDELVENCNILESHYKEMQDIEFTVQENRLWMLQCRTGKRTGKSAVKIAVDMVNEGLVEPRSAIKMVEPGHLDQLLHPQFENPSAYKDQVIATGLPASPGAAVGQVVFTAEDAEAWHSQGKAAILVRAETSPEDVGGMHAAVGILTERGGMTSHAAVVARGWGKCCVSGCSGIRVNDAEKLVTIGGHVLREGEWLSLNGSTGEVILGKQPLSPPALSGDLGTFMAWVDDVRKLKVLANADTPDDALTARNNGAQGIGLCRTEHMFFASDERIKAVRQMIMAPTLELRQQALDRLLPYQRSDFEGIFRAMDGLPVTIRLLDPPLHEFLPEGNIEDIVSELCAETGANQEDALARIEKLSEVNPMLGFRGCRLGISYPELTEMQARAIFEAAIAMTNQGVQVFPEIMVPLVGTPQELGHQVTLIRQVAEKVFANVGKTIGYKVGTMIEIPRAALVADEIAEQAEFFSFGTNDLTQMTFGYSRDDVGKFIPVYLAQGILQHDPFEVLDQRGVGELVKFATERGRKARPNLKVGICGEHGGEPSSVAFFAKAGLDYVSCSPFRVPIARLAAAQVLV”: “soluble”.
